Values quoted from earlier work in article PMC5620257.
Read-outs that look alike come from different tables or passages of the source.

Assays:
[1] = biological target: PD1 (Homo sapiens) (UniProt Q15116)
[2] = biological target: PD1 (Homo sapiens) (UniProt Q15116); remark: listed apart in the source

UniProt Q15116, sequence (Q15116 25-170): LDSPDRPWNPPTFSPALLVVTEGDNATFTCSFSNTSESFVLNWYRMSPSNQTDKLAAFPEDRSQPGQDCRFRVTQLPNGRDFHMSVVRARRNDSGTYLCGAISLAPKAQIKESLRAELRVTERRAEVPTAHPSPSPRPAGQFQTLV

For PD-L1 (from UniProt Q9NZQ7), the Kd [1] is listed as 0.77 µM and the Kd [2] is listed as 26.6 µM.
